In paper PMC9035363 (Cell Reports, 2022):
Like-named read-outs stand apart in the source and are kept apart here.

B1: LY-CoV1404 (bebtelovimab), full-length human IgG1 mAb (antibody, V domains shown)
VH: QITLKESGPTLVKPTQTLTLTCTFSGFSLSISGVGVGWLRQPPGKALEWLALIYWDDDKRYSPSLKSRLTISKDTSKNQVVLKMTNIDPVDTATYYCAHHSISTIFDHWGQGTLVTVSS
VL: QSALTQPASVSGSPGQSITISCTATSSDVGDYNYVSWYQQHPGKAPKLMIFEVSDRPSGISNRFSGSKSGNTASLTISGLQAEDEADYYCSSYTTSSAVFGGGTKLTVL
B2: LY-CoV1404 Fab (papain digestion) (Fab, V domains shown)
VH: B1 VH
VL: B1 VL

Columns and labels:
[1] = molecular target: SARS-CoV-2 RBD (monomeric) (SARS-CoV-2, Wuhan reference …, UniProt P0DTC2); experiment: SPR
[2] = molecular target: T1, SARS-CoV-2 S protein, wild type, on CHO cells (SARS-CoV-2, Wuhan (GenBank MN908947.3), UniProt P0DTC2); experiment: cell-based or functional assay
[3] = molecular target: T1, SARS-CoV-2 S protein, wild type, on CHO …; experiment: cell-based or functional assay; remark: listed apart in the source
[4] = molecular target: T2, RBD-Fc, reference sequence (SARS-CoV-2, Wuhan reference …, UniProt P0DTC2); experiment: SPR
[5] = molecular target: T2, RBD-Fc, reference sequence; experiment: SPR; remark: listed apart in the source

| Binder | Kd [1] | authentic SARS-CoV-2/MT020880.1 neutralisation, IFA, IC50 (S-ACE2) [2] | PRNT, Italy-INMI1 isolate, combination study, LY-CoV1404 alone, IC50 [3] | PRNT, authentic Italy-INMI1 isolate, IC50 [3] | PRNT, authentic WA isolate, IC50 [3] | Kd [4] | Kd [5] |
| --- | --- | --- | --- | --- | --- | --- | --- |
| B1 | 1.58 nM | 0.009 to 0.0221 µg/mL | 0.015 µg/mL | 0.01 µg/mL | 0.002 µg/mL | – | – |
| B2 | – | – | – | – | – | 4.01 nM | 3.71 nM |
